Test results published in patent US6706762, “Methods for the use of inhibitors of co-repressors for the treatment of neoplastic diseases” (The Salk Institute for Biological Studies).

Key:
RARα/RXRα heterodimer = RARα/RXRα heterodimer (UniProt P10276;P19793 P10276:1-462,P19793:1-462); experiment: EMSA; with GST-SMRT-IDII; SMRT dissociated by ATRA; 100 mM KCl, 16.7 mM Tris pH 7.5, poly(dI:dC), room temperature; settings: label: 32P
From the text: The protein-DNA complexes were then resolved on a 4.5% native polyacrylamide gel and visualized by autoradiography.

[1] = target: RARα 411/RXRα heterodimer (Homo sapiens, UniProt P10276;P19793 P10276:1-410,P19793:1-462, RARα stop codon introduced at amino acid 411); experiment: EMSA; with GST-SMRT-IDII; impaired dissociation of SMRT by ATRA; settings: label: 32P
Chain of RARα 411/RXRα heterodimer (P10276 1-410, change not shown, chain 1 of 2): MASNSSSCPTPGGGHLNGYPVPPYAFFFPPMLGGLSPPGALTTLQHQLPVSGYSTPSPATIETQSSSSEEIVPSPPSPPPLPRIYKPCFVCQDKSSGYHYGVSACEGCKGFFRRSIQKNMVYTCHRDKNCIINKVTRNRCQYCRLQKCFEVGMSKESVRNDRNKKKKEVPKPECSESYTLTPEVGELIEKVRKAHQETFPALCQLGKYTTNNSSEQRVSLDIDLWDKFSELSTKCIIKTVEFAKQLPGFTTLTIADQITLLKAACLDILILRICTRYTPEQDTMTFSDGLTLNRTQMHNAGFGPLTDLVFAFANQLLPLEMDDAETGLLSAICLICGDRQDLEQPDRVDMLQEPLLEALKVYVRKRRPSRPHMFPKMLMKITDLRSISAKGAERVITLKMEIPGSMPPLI
Chain of RARα 411/RXRα heterodimer (P19793 whole entry, change not shown, chain 2 of 2): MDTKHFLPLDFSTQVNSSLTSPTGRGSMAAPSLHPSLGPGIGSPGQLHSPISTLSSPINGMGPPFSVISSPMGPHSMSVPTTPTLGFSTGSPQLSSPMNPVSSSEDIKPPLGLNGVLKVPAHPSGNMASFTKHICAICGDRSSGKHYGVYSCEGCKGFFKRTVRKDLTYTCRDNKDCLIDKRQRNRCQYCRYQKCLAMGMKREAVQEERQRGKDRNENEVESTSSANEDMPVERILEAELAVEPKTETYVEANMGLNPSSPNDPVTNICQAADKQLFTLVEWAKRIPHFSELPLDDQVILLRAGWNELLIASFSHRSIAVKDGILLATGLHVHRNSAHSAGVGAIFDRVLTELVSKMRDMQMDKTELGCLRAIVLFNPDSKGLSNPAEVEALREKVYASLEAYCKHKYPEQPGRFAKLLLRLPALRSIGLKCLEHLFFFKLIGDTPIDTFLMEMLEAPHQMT

Chain of RARα/RXRα heterodimer (P10276 whole entry, chain 1 of 2): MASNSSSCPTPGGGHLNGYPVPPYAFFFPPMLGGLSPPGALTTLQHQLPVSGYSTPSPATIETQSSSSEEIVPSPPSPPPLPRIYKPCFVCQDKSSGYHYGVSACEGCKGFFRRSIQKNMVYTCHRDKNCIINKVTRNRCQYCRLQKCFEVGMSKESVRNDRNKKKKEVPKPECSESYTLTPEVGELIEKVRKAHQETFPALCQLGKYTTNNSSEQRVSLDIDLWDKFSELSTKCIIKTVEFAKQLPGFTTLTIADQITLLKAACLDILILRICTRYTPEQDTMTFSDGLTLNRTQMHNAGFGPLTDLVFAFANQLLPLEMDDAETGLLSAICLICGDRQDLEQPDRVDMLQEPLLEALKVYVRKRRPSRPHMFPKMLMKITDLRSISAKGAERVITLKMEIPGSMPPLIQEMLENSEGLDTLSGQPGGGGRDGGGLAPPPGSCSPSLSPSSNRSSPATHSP
Chain of RARα/RXRα heterodimer (P19793 whole entry, chain 2 of 2): as the sequence (P19793 whole entry, change not shown, chain 2 of 2) above

B1: DR5 retinoid response element (dsDNA)
DNA 1: TCGACTCAGGTCACCACGAGGTCAGAGTC
DNA 2: GACTCTGACCTCGTGGTGACCTGAGTCGA
Question: What does the source list for B1?
Answer: binding result (RARα/RXRα heterodimer): binds; binding result [1]: binds
